Measured values taken from paper PMC7053344, “Crystal Structures of Human C4.4A Reveal the Unique Association of Ly6/uPAR/α-neurotoxin Domain” (International Journal of Biological Sciences, 2020).

Key:
[1] = target: T1, C4.4A-DIDII^1-199 fused to a C-terminal uPAR DIII purification tag (Homo sapiens, UniProt O95274); experiment: far-Western, overlay or dot blot; immunoblot: purified C4.4A domain constructs, unreduced (lanes 1-6), separated by SDS-PAGE and immobilized on a PVDF membrane; 1 µg/mL mAb 11H10 as primary antibody, peroxidase-conjugated anti-mouse immunoglobulins, ECL; details: both partners purified
T1 construct: C4.4A (LYPD3), human, both LU-domains DI and DII, residues 1-199; also called C4.4A-DIDII (blot construct); not shown: uPAR DIII, C-terminal, kept
T1 sequence (O95274 whole entry, looked up, the tested form may be a part): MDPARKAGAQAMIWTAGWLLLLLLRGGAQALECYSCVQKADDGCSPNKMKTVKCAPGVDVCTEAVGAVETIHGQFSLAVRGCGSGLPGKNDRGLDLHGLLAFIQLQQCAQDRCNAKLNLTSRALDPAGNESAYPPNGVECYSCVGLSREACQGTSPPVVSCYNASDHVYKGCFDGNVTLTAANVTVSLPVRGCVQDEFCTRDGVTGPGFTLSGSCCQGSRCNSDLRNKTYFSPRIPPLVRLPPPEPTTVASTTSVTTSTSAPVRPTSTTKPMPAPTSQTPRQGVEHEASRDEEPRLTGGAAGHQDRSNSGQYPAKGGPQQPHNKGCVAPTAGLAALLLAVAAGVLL

[2] = target: T2, C4.4A^1-278 fused to a C-terminal uPAR DIII purification tag (Homo sapiens, UniProt O95274); experiment: as above; details: both partners purified
T2 construct: C4.4A (LYPD3), human, DI, DII and STP-rich region, residues 1-278; also called C4.4A-ent-uPAR-DIII; not shown: uPAR DIII, C-terminal, kept
T2 sequence (O95274 whole entry, looked up, the tested form may be a part): as above

B1: mouse monoclonal anti-human C4.4A antibody 11H10 (antibody, V domains shown)
VH: QVTLKESGPGILQPSQTLSLTCSFSGFSLNSFGTGVGWIRQPSGKGLEWLAHIWWNDYKYYNAALESRLTISKDTSNNQVFLKIASVDTADTATYYCARLRLRYFDYWGQGTTLTVSS
VL: DILMTQSPAILSVSPGEGVSFSCWANQNIGTSIHWYQQRTNGSPRLLIKYASESISGIPSRFSGSGSGTDFTLSINSVESEDIADYYCQQSNSWPIFTFGSGTKLEIK
notes: 11H10 light chain (kappa), printed as the Fab light chain; 11H10 heavy chain VH, CH1 and start of the hinge, printed as the Fab heavy chain; mouse IgG1 heavy chain constant region, the rest of the hinge, CH2 and CH3 that follow the printed Fd (ends VPRDC); IgG1 kappa; also called mAb 11H10; source: mouse hybridoma (FVB mice immunized with recombinant human C4.4A), purified
**Q.** Does B1 bind [1]?
**A.** binds

**Q.** Does B1 bind [2]?
**A.** binds
